Biological target: T1, soluble CD4 (D1D2 domains, residues 1 to 186)
T1 construct: also called sCD4; source: Expi293F, purified (StrepTrap HP, SEC)
Assay: cryo-EM structure; Fab, soluble SOSIP trimer and sCD4 incubated at a molar ratio of 3.6:1:3.6 Fab/Env/sCD4 at room temperature for 4 h; single-particle cryo-EM of the ternary complex
Details: both partners purified

B1: CG10 Fab (Fab, V domains shown)
VH: QVQLKQSGTELVRPGTSVKMSCKAAGYTFTDYWIGWVKQRPGHGLEWIGDFYPGGDYTLYSENFMGKASLTADTSSNTAYMQLSSLTSEDSAIYYCARGHYYGYSYAWFAYWGQGTLVTVSS
VL: DIVLTQSPASLAVSLGQRATISCKASQSVDYDGDSYMNWYQQKPGQPPKLLIYAASNLESGIPARFSGSGSGTDFTLNIHPVGEEDAATYYCQQSHEDPWTFGGGTMLEIK
notes: source: Expi293F, purified (Ni-NTA, SEC)
  binding result: binds

From PMC9769388 (Journal of Virology, 2022)
